Here are results for five substances from PMC10163261.

The target of experiment [1] is 3.L2 TCR. In words: bond lifetime vs force measurement (method not named for this panel). The settings on record: solid fitted curve (TCR-pMHC-II model) read at force = 10 pN; TCR on CD4-CD8+ naive T cells; parent: est. 2.3; read off a plot.
Experiment [2] has as its target K5:I-E^k (UniProt P04230). The experiment in a line: BFP force-dependent bond lifetime measurement. The settings on record: solid fitted curve (TCR-pMHC-II model) read at force = 10 pN; TCR on hybridomas; parent: est. 1.6; read off a plot.
UniProt P04230, sequence (P04230 whole entry, looked up): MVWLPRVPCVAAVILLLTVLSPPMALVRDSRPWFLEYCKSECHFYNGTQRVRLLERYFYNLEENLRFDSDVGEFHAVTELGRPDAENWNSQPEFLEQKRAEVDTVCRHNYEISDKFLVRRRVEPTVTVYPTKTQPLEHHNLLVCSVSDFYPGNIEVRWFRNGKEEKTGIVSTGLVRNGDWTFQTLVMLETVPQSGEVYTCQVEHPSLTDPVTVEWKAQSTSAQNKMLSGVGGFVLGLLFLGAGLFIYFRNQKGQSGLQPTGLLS

Turning to Hb:I-Ek T72, in experiment [1], the other: bond lifetime came out at 1.1 s.

With “hybrid 2B4 TCR with its mouse Vαβ fused with the Cαβ of the human LC13 (WT) (from UniProt P01848) β:G182A; β:K183A”, the other: bond lifetime in experiment [2] turned out to be 1.3 s.

As to “hybrid 2B4 TCR with its mouse Vαβ fused with the Cαβ of the human LC13 (WT) (from UniProt P01848) β:H221A; β:N222A”, the other: bond lifetime in experiment [2] was determined as 0.38 s.

For “hybrid 2B4 TCR with its mouse Vαβ fused with the Cαβ of the human LC13 (WT) (from UniProt P01848) β:N222A; β:P223A”, the other: bond lifetime in experiment [2] was 2.2 s.

Consider “hybrid 2B4 TCR with its mouse Vαβ fused with the Cαβ of the human LC13 (WT) (from UniProt P01848) β:N225A; β:H226A”, for which the other: bond lifetime in experiment [2] came out at 0.15 s.
